{"source": "paper PMC7486399", "target": "angiotensin-converting enzyme 2 (ACE2) protein, purified (UniProt Q9BYF1)", "assay": "AFM single-molecule force spectroscopy (FD-curve-based AFM)"}
{"substance": "SARS-CoV-2 spike glycoprotein receptor-binding domain (from UniProt P0DTC2 319-541) (domain or fragment)", "values": [{"measurement": "Kd", "value": 120, "unit": "nM"}, {"measurement": "bond lifetime τ", "value": 111, "unit": "ms"}, {"measurement": "interaction time", "value": 0.25, "unit": "ms"}]}
